Our source for the self-cleavage values is the RNAGym collection of RNA variant scans (doi:10.7554/elife.90254).

First the molecules themselves.
B1: LINE1-full (parent)
chain: UACGUAGGUGGUUUUCCCCUGAUAGUGCUAAGGGGGCCUGGAAGUUUGGACUGGGCAGAGCUCAACACAGCGUGGCAAAGUGGCUGUGGCUAGACUGCCUCUCUGGAUUCCUCGUCACUCAGCAGGGCAUCUCUGAGAGAAAUGCC

In this series the parent is B1. Briefly: self-cleavage, relative activity (ratio to wild type); higher = more cleavage; in vitro, sequencing; the parent is a self-cleaving ribozyme.
In the case of A69U C99G, the self-cleavage worked out at 0.09.

On to G74A G144A, for which the self-cleavage worked out at 1.09.

Consider C71U U130A, for which the self-cleavage amounted to 1.

As to U73A U109A, the self-cleavage is 0.92.

Regarding U73A G139A, the self-cleavage worked out at 1.47.

In the case of U73C C145U, the self-cleavage amounted to 1.53.

Regarding U73A U132G, the self-cleavage is 2.06.

U73C A77U: the self-cleavage turned out to be 1.31.

In the case of G70A A124C, the self-cleavage was found to be 0.21.

For the variant G74U A117U, the self-cleavage worked out at 1.79.

Regarding C71U U73A, the self-cleavage amounted to 0.31.

C71U U73C: the self-cleavage was 0.1.

U73A A117C: the self-cleavage is 1.99.

As to U73A A117G, the self-cleavage was determined as 1.4.

As to G72A U108C, the self-cleavage is 1.54.

Turning to A69U U132C, the self-cleavage came out at 0.07.

Consider A69U U132A, for which the self-cleavage worked out at 0.06.

Regarding U73C C98A, the self-cleavage was found to be 0.21.

Consider U73C A141U, for which the self-cleavage was 1.53.

On to U73C A141G, for which the self-cleavage worked out at 1.62.

Regarding G70A U85G, the self-cleavage is 0.01.

Turning to U73C C111U, the self-cleavage was 2.14.

Consider U73A C110A, for which the self-cleavage amounted to 0.94.

Regarding G70A U91A, the self-cleavage was 0.1.

Regarding G72U C113U, the self-cleavage worked out at 1.15.

On to G72A U100A, for which the self-cleavage came to 0.18.

For the variant G72A U100C, the self-cleavage turned out to be 0.32.

On to U73C A136U, for which the self-cleavage turned out to be 1.76.

On to G70C A77U, for which the self-cleavage is 0.09.

U73C A124G: the self-cleavage came to 0.64.

On to U73C A124U, for which the self-cleavage is 1.5.

On to C71U A77U, for which the self-cleavage was determined as 0.7.

Regarding U73C C131A, the self-cleavage was 1.55.

For the variant U73C C131U, the self-cleavage came out at 1.73.

Regarding U73C C131G, the self-cleavage turned out to be 1.73.

Regarding A69U G97A, the self-cleavage turned out to be 0.03.

Regarding G75A A79G, the self-cleavage is 0.83.

With G72U C76U, the self-cleavage is 2.1.

On to G72A A140G, for which the self-cleavage amounted to 1.16.

On to G70A C128A, for which the self-cleavage was found to be 0.04.

As to C71U A117G, the self-cleavage was 0.64.

U73G A140G: the self-cleavage stood at 1.21.

On to U73A C76U, for which the self-cleavage stood at 2.51.

Take G70A U115G: the self-cleavage was 0.11.

As to U73C G114A, the self-cleavage turned out to be 1.54.

On to G70A A138C, for which the self-cleavage is 0.32.

Regarding U73G U96C, the self-cleavage was 0.

Turning to U73C A142U, the self-cleavage stood at 1.24.

For the variant U73C A142G, the self-cleavage was 1.82.

Take G74A C113A: the self-cleavage is 0.85.

Turning to G70A A142G, the self-cleavage is 0.11.

In the case of G70A A107G, the self-cleavage stood at 0.08.

For the variant U73A G122A, the self-cleavage is 1.98.

With U73C G105A, the self-cleavage came out at 2.03.

Consider U73C G105U, for which the self-cleavage came out at 1.32.

Regarding C71U, the self-cleavage was 0.86.

For C71A, the self-cleavage came out at 0.2.

In the case of C71G, the self-cleavage was found to be 0.27.

Regarding C71A A140G, the self-cleavage is 0.23.

G72A G83A: the self-cleavage came out at 1.53.

Turning to A69U C131A, the self-cleavage was 0.07.

With A69U C131U, the self-cleavage is 0.03.

For the variant C71U U109A, the self-cleavage was found to be 0.41.

As for A69U G127C, the self-cleavage came out at 0.12.

On to C71U U115A, for which the self-cleavage stood at 0.85.

Take U73A C113A: the self-cleavage was found to be 0.23.

On to U73C C76U, for which the self-cleavage turned out to be 2.52.

Regarding A69G U130C, the self-cleavage is 0.67.

With A69G U130A, the self-cleavage is 0.39.

Consider U73C G125U, for which the self-cleavage worked out at 2.15.

Regarding C71A U134A, the self-cleavage was 0.18.

On to G72A U85G, for which the self-cleavage was 0.21.

As to G72A U85A, the self-cleavage worked out at 0.07.

Turning to G72A U102A, the self-cleavage was 1.66.

Turning to G74C, the self-cleavage was 1.6.

With G74U, the self-cleavage was found to be 1.4.

In the case of G74A, the self-cleavage stood at 0.95.

On to U73A U91A, for which the self-cleavage came out at 0.72.

For U73G U104C, the self-cleavage was 2.

Take U73A A140G: the self-cleavage stood at 1.69.

Regarding U73C U134A, the self-cleavage turned out to be 1.54.

Regarding U73C U134C, the self-cleavage is 1.87.

C71A A77G: the self-cleavage stood at 0.18.

Take U73G A92G: the self-cleavage worked out at 0.36.

Take C71U U102C: the self-cleavage was found to be 0.18.

Consider U73A U112C, for which the self-cleavage was found to be 1.56.

As to U73A U112G, the self-cleavage came out at 1.53.

Consider U73A U112A, for which the self-cleavage worked out at 2.03.

Take G70A U100C: the self-cleavage amounted to 0.29.

As to G72U A138G, the self-cleavage worked out at 1.55.

As to G70U A79G, the self-cleavage was found to be 0.03.

U73A A138G: the self-cleavage is 1.75.

Regarding U73A A138U, the self-cleavage was 1.72.

U73C A94G: the self-cleavage is 0.37.

As to G74U U112C, the self-cleavage was 1.64.

On to U73C C103U, for which the self-cleavage was 1.61.

With G74A U104A, the self-cleavage is 0.75.

Turning to U73G U81G, the self-cleavage was found to be 1.05.

As to U73A U81C, the self-cleavage worked out at 1.09.

For U73A U81G, the self-cleavage came out at 1.85.

Consider G72A C84U, for which the self-cleavage stood at 0.19.

For C71U G144A, the self-cleavage came out at 1.27.

Take G70A A140G: the self-cleavage was found to be 0.06.

For A69U C120U, the self-cleavage was 0.07.

On to G72U C145G, for which the self-cleavage worked out at 0.94.

Take A69U A94U: the self-cleavage stood at 0.05.

Consider G74A U102C, for which the self-cleavage amounted to 1.08.

For the variant G75A A117C, the self-cleavage worked out at 1.31.

With U73C U112G, the self-cleavage is 2.63.

For the variant A69U A138U, the self-cleavage came out at 0.09.

For the variant U73G A107U, the self-cleavage came to 1.59.

Turning to C71U C146U, the self-cleavage came out at 0.66.

As to G74A A77G, the self-cleavage was 1.35.

Turning to G70A U132G, the self-cleavage is 0.19.

Turning to G70U A138G, the self-cleavage came to 0.1.

For the variant G74A U134C, the self-cleavage turned out to be 1.1.

Take G72A U87A: the self-cleavage amounted to 0.07.

In the case of G70U U130C, the self-cleavage was 0.08.

In the case of U73A G80A, the self-cleavage came out at 2.16.

As to U73G U112G, the self-cleavage is 0.

For U73C G75U, the self-cleavage was 0.78.

For the variant G72C U73C, the self-cleavage worked out at 1.13.

Turning to A69U G114U, the self-cleavage turned out to be 0.06.

For the variant G74A A124U, the self-cleavage worked out at 1.22.

As for G72C A94G, the self-cleavage amounted to 0.18.

For the variant G72A U143C, the self-cleavage was 1.65.

In the case of C71U A129G, the self-cleavage amounted to 0.91.

Consider A69G U115G, for which the self-cleavage was 0.57.

Turning to A69G U115A, the self-cleavage was 0.25.

Consider A69G U115C, for which the self-cleavage was 0.88.

For A69U A124C, the self-cleavage stood at 0.02.

C71A A78G: the self-cleavage is 0.19.

On to A69U U115C, for which the self-cleavage turned out to be 0.07.

In the case of A69U U115A, the self-cleavage is 0.07.

With G72A A141G, the self-cleavage came out at 1.54.

As for G72A A141U, the self-cleavage worked out at 1.42.

G70U A140G: the self-cleavage was 0.04.

In the case of A69U A136G, the self-cleavage amounted to 0.06.

Turning to A69U G72A, the self-cleavage stood at 0.04.

Consider G72C U134A, for which the self-cleavage turned out to be 0.97.

As to G72U C116A, the self-cleavage came out at 1.23.

As to U73G U143C, the self-cleavage is 2.02.

For G74U U102A, the self-cleavage is 1.79.

Consider U73C C133U, for which the self-cleavage is 1.97.

Turning to C71A A117G, the self-cleavage turned out to be 0.15.

As for G74A A136U, the self-cleavage was found to be 0.91.

Regarding U73G U109C, the self-cleavage was found to be 1.07.

In the case of U73A A121U, the self-cleavage came to 1.28.

In the case of U73A A121G, the self-cleavage was determined as 1.93.

G72U U87C: the self-cleavage came to 0.32.

As to G74A A121U, the self-cleavage is 1.07.

Turning to U73C C113A, the self-cleavage was 1.4.

For G72U A140G, the self-cleavage came to 0.6.

For A69U A79C, the self-cleavage was 0.12.

As to A69U A79U, the self-cleavage was 0.08.

With A69U A78G, the self-cleavage was found to be 0.04.

Take G74C U132A: the self-cleavage was determined as 1.46.

As to U73C U115C, the self-cleavage is 1.63.

As for G74A U119A, the self-cleavage worked out at 0.84.

Turning to U73G U134C, the self-cleavage was determined as 1.57.

Consider G72U U73A, for which the self-cleavage came to 1.33.

On to U73A U85A, for which the self-cleavage was 0.05.

Regarding U73A U85C, the self-cleavage was determined as 0.1.

For the variant G75A A107G, the self-cleavage was determined as 1.66.

In the case of C71U A79G, the self-cleavage stood at 0.2.

With U73G A142U, the self-cleavage turned out to be 0.61.

As for U73C U102C, the self-cleavage came to 1.11.
